Positions count from the first letter of the chain named. Names and notes keep the numbering of the source.
B1: anti-IL-6 Fab, parental molecule (Fab, V domains shown)
VH: EVQLVESGGGLVQPGGSLRLSCAASGFTFSPFAMSWVRQAPGKGLEWVAKISPGGSWTYYSDTVTGRFTFSLDTSKSTAYLQMNSLRAEDTAVYYCARQLWGYYALDIWGQGTLVTVSS
VL: DIQLTQSPSSLSASVGDRVTITCSASISVSYMYWYQQKPGKAPKLLIYDMSNLASGVPSRFSGSGSGTDFTLTISSLQPEDFATYYCMQWSGYPYTFGQGTKVEIK
notes: Fab expressed in E. coli TG1, tested as filtered lysate; also called wild-type; parent molecule
B2: anti-IL-6 Fab, heavy chain F27R (Fab, V domains shown)
VH: B1 VH with F27R
VL: B1 VL
notes: see m39
B3: anti-IL-6 Fab, heavy chain S35H (Fab, V domains shown)
VH: B1 VH with S35H
VL: B1 VL
notes: see m39
B4: anti-IL-6 Fab, heavy chain R98G (Fab, V domains shown)
VH: B1 VH with R98G
VL: B1 VL
notes: see m39
B5: anti-IL-6 Fab, heavy chain S30G (Fab, V domains shown)
VH: B1 VH with S30G
VL: B1 VL
notes: see m39
B6: anti-IL-6 Fab, heavy chain A49T (Fab, V domains shown)
VH: B1 VH with A49T
VL: B1 VL
notes: see m39
B7: anti-IL-6 Fab, heavy chain G66E (Fab, V domains shown)
VH: B1 VH with G66E
VL: B1 VL
notes: see m39
B8: anti-IL-6 Fab, heavy chain G66D (Fab, V domains shown)
VH: B1 VH with G66D
VL: B1 VL
notes: see m39
B9: anti-IL-6 Fab, heavy chain F27P (Fab, V domains shown)
VH: B1 VH with F27P
VL: B1 VL
notes: see m39
B10: anti-IL-6 Fab, heavy chain F27V (Fab, V domains shown)
VH: B1 VH with F27V
VL: B1 VL
notes: see m39
B11: anti-IL-6 Fab, heavy chain F32V (Fab, V domains shown)
VH: B1 VH with F32V
VL: B1 VL
notes: see m39
B12: anti-IL-6 Fab, heavy chain S61A (Fab, V domains shown)
VH: B1 VH with S61A
VL: B1 VL
notes: see m39
B13: anti-IL-6 Fab, heavy chain F27S (Fab, V domains shown)
VH: B1 VH with F27S
VL: B1 VL
notes: see m39
B14: anti-IL-6 Fab, heavy chain F29Y (Fab, V domains shown)
VH: B1 VH with F29Y
VL: B1 VL
notes: see m39
B15: anti-IL-6 Fab, heavy chain F27G (Fab, V domains shown)
VH: B1 VH with F27G
VL: B1 VL
notes: see m39
B16: anti-IL-6 Fab, heavy chain S30W (Fab, V domains shown)
VH: B1 VH with S30W
VL: B1 VL
notes: see m39
B17: anti-IL-6 Fab, heavy chain S56R (Fab, V domains shown)
VH: B1 VH with S56R
VL: B1 VL
notes: see m39
B18: anti-IL-6 Fab, heavy chain G26S (Fab, V domains shown)
VH: B1 VH with G26S
VL: B1 VL
notes: see m39
B19: anti-IL-6 Fab, heavy chain F32G (Fab, V domains shown)
VH: B1 VH with F32G
VL: B1 VL
notes: see m39
B20: anti-IL-6 Fab, heavy chain A49S (Fab, V domains shown)
VH: B1 VH with A49S
VL: B1 VL
notes: see m39
B21: anti-IL-6 Fab, heavy chain M34W (Fab, V domains shown)
VH: B1 VH with M34W
VL: B1 VL
notes: see m39
B22: anti-IL-6 Fab, heavy chain I51R (Fab, V domains shown)
VH: B1 VH with I51R
VL: B1 VL
notes: see m39
B23: anti-IL-6 Fab, heavy chain S56H (Fab, V domains shown)
VH: B1 VH with S56H
VL: B1 VL
notes: see m39
B24: anti-IL-6 Fab, heavy chain L106F (Fab, V domains shown)
VH: B1 VH with L106F
VL: B1 VL
notes: see m39
B25: anti-IL-6 Fab, heavy chain D62Q (Fab, V domains shown)
VH: B1 VH with D62Q
VL: B1 VL
notes: see m39
B26: anti-IL-6 Fab, heavy chain F29H (Fab, V domains shown)
VH: B1 VH with F29H
VL: B1 VL
notes: see m39
B27: anti-IL-6 Fab, heavy chain S61K (Fab, V domains shown)
VH: B1 VH with S61K
VL: B1 VL
notes: see m39
B28: anti-IL-6 Fab, heavy chain S30Y (Fab, V domains shown)
VH: B1 VH with S30Y
VL: B1 VL
notes: see m39
B29: anti-IL-6 Fab, heavy chain I108F (Fab, V domains shown)
VH: B1 VH with I108F
VL: B1 VL
notes: see m39
B30: anti-IL-6 Fab, heavy chain G26R (Fab, V domains shown)
VH: B1 VH with G26R
VL: B1 VL
notes: see m39
B31: anti-IL-6 Fab, heavy chain S35Q (Fab, V domains shown)
VH: B1 VH with S35Q
VL: B1 VL
notes: see m39
B32: anti-IL-6 antibody, heavy chain T65W, G66D / light chain M32L, M50D, N52S, M88Q (antibody, human IgG1, V domains shown)
VH: B1 VH with T65W, G66D
VL: B1 VL with M32L, M50D, N52S, M88Q
notes: Human IgG1
B33: anti-IL-6 antibody, heavy chain T65Y, G66D / light chain M32L, M50D, N52S, M88Q (antibody, human IgG1, V domains shown)
VH: B1 VH with T65Y, G66D
VL: B1 VL with M32L, M50D, N52S, M88Q
notes: Human IgG1
B34: anti-IL-6 antibody, heavy chain T65V, G66D / light chain M32L, M50D, N52S, M88Q (antibody, human IgG1, V domains shown)
VH: B1 VH with T65V, G66D
VL: B1 VL with M32L, M50D, N52S, M88Q
notes: Human IgG1

The binders below were run against recombinant human IL-6 (human, UniProt P05231 30-212) (assay: SPR, IL-6 on CM5 chip, Fab lysate, 25 C).
Experimental: Three ranges of antigen density (100-150 RU, 300-400 RU, 400-600 RU) were obtained by using variable flow times for each chip channel, later blocked with ethanolamine. Supernatants of the 96-well filtered culture lysates were injected at 50 μL/min for 120 seconds. Fitting of dissociation curves (300 seconds) to single exponential decay curve was used for the determination of dissociation rates (koff). Chip surfaces were regenerated with 10 mM Glycine pH 1.7 solution injected at 50 μL/min during 60 seconds after every cycle of sample binding and dissociation.

recombinant human IL-6, sequence (P05231 30-212 limits assumed): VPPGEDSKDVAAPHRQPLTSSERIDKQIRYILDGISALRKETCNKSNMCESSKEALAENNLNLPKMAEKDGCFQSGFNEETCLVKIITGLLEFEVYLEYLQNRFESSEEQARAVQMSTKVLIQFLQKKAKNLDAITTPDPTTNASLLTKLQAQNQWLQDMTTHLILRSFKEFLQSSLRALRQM

How did the koff turn out when B1 was run?
Its koff is 0.00494 s⁻¹.

With B2 as the binder, how does the koff read?
Its koff is 0.00394 s⁻¹.

B3 was tested. Which koff did it give?
The koff was 0.00392 s⁻¹.

How did the koff turn out when B4 was run?
The koff was 0.0048 s⁻¹.

B5 was tested. Which koff did it give?
Its koff is 0.00377 s⁻¹.

For B6, which koff is on record?
Its koff is 0.00575 s⁻¹.

How did the koff turn out when B7 was run?
Its koff is 0.00505 s⁻¹.

How did the koff turn out when B8 was run?
The koff was 0.00607 s⁻¹.

How did the koff turn out when B9 was run?
Its koff is 0.00418 s⁻¹.

How did the koff turn out when B10 was run?
The koff was 0.00405 s⁻¹.

With B11 as the binder, how does the koff read?
Its koff is 0.00541 s⁻¹.

Which koff does the source give for B12 here?
Its koff is 0.00604 s⁻¹.

How did the koff turn out when B13 was run?
Its koff is 0.00393 s⁻¹.

B14 was tested. Which koff did it give?
The koff was 0.00511 s⁻¹.

For B15, which koff is on record?
The koff was 0.00401 s⁻¹.

Which koff does the source give for B16 here?
The koff was 0.00369 s⁻¹.

How did the koff turn out when B17 was run?
Its koff is 0.00509 s⁻¹.

With B18 as the binder, how does the koff read?
The koff was 0.00375 s⁻¹.

B19 was tested. Which koff did it give?
The koff was 0.00525 s⁻¹.

Which koff does the source give for B20 here?
The koff was 0.0054 s⁻¹.

With B21 as the binder, how does the koff read?
The koff was 0.00397 s⁻¹.

How did the koff turn out when B22 was run?
The koff was 0.00315 s⁻¹.

Which koff does the source give for B23 here?
Its koff is 0.0409 s⁻¹.

Which koff does the source give for B24 here?
The koff was 0.00601 s⁻¹.

With B25 as the binder, how does the koff read?
The koff was 0.00434 s⁻¹.

B26 was tested. Which koff did it give?
Its koff is 0.00524 s⁻¹.

For B27, which koff is on record?
Its koff is 0.00558 s⁻¹.

How did the koff turn out when B28 was run?
The koff was 0.00352 s⁻¹.

Which koff does the source give for B29 here?
The koff was 0.0034 s⁻¹.

Which koff does the source give for B30 here?
The koff was 0.00381 s⁻¹.

How did the koff turn out when B31 was run?
Its koff is 0.00354 s⁻¹.

Each binder was assayed against human IL-6 (human, UniProt P05231 30-212) (assay: SPR (Biacore), supernatant antibody on Protein A chip, IL-6 flowed, 37 C).
Experimental: Antibodies were captured on a Protein A chip (GE) by injecting 1:20 cell supernatant dilutions at 10 μL/min for 60 seconds. […] The sensor chip was regenerated by a 60 seconds injection of 10 mM Glycine pH 1.7 at the flow rate of 50 μL/min. […] For this setup, 1 μg/mL of purified antibody was injected over a Protein A chip at 10 μL/min for 25 seconds. […] The sensor chip was regenerated by a 60 seconds injection of 10 mM Glycine pH 1.7 at flow rate of 50 μL/min. Data analysis for supernatant and purified samples were performed using BIAevaluation software (GE). All sensorgrams were double reference subtracted and fit using a 1:1 Langmuir binding model.

human IL-6, sequence (P05231 30-212 limits assumed): as above

How did the Kd turn out when B32 was run?
The Kd was 0.322 nM.

And the koff?
The koff was 0.000384 s⁻¹.

And the kon?
Its kon is 1.19e+06 M⁻¹ s⁻¹.

Which Kd does the source give for B33 here?
Its Kd is 0.237 nM.

What about the koff of the same binder?
The koff was 0.000367 s⁻¹.

And the kon?
The kon was 1.55e+06 M⁻¹ s⁻¹.

With B34 as the binder, how does the Kd read?
The Kd was 0.281 nM.

And the koff?
The koff was 0.000551 s⁻¹.

What about the kon of the same binder?
The kon was 1.96e+06 M⁻¹ s⁻¹.

From patent US20240209076A1 (KODIAK SCIENCES, published 2024)
